Experiments:
[1] = target: T1, polymorphonuclear leucocyte elastase from human sputum (Homo sapiens, UniProt P08246); experiment: Assay for elastase inhibitor activity (Example 24); format: biochemical; conditions: enzyme 2 × 10^-8 M, substrate 3.0 × 10^-4 M
T1 construct: Polymorphonuclear leukocyte elastase from human sputum (EPC Co; Funakoshi Yakuhin); purchased EPC Co. (via Funakoshi Yakuhin); host or cells: human sputum
T1 sequence (P08246 30-267): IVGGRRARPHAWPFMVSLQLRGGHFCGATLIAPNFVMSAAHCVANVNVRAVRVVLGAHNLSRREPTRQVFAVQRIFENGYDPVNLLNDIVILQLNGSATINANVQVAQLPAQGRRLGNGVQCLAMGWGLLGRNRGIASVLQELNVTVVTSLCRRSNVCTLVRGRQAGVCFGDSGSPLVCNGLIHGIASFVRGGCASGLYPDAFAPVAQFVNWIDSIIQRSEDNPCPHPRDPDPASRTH
Method: (§1) The following assay method was used.
(§2) Buffer: 0.1M (2-hydroxyethyl)piperazine-N'-2-ethansulfonic acid (HEPES), 0.5M NaCl, pH 7.5.
(§3) Enzyme concentration: the following enzyme was dissolved in the above-mentioned buffer to a concentration 9 times that shown in Table 12.
A. Polymorphonuclear leucocyte elastase from human sputum (EPC Co., Funakoshi Yakuhin)
Substrate solution: for the enzymes A, B, C, D and E, the following substrate a, b, c, d or e, respectively, was dissolved in a solution of DMSO+the above-mentioned buffer (1:9) (note, final concentration of DMSO was 10% in the buffer) to a concentration of 9 times that shown in Table 12.
a. MeO-Suc-Ala-Ala-Pro-Val-pNA (Bachem) […]
(§4) To wells of an ELISA 96-well microtiter plate, were added 120 μl of the buffer and the 20 μl of a sample solution of (Arg^59 -Ala^107) SLPI obtained in Example 23, followed by 20 μl of the enzyme solution. The mixture was reacted at 37° C. for 10 minutes. Next, 20 μl of the substrate was added, and developed at 37° C. The developed color was measured by absorption at 405 nm.
(§5) As a control the same procedure was carried out using SLPI.

Bovine spleen trypsin = target: T2, Bovine spleen trypsin (Bos taurus, UniProt P00760); experiment: Assay for trypsin inhibitor activity (Example 24); format: biochemical; conditions: enzyme 2 × 10^-7 M, substrate 1.0 × 10^-3 M
T2 construct: purchased Sigma
T2 sequence (P00760 24-246): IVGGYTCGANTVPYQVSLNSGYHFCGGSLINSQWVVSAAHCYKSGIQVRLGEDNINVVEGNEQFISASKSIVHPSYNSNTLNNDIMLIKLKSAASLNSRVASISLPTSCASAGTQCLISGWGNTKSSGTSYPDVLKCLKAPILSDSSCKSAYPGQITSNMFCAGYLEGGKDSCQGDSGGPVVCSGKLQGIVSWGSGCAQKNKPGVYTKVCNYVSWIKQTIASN
Method: as §1, §2, §3
B. Bovine spleen trypsin (Sigma)
Substrate solution: for the enzymes A, B, C, D and E, the following substrate a, b, c, d or e, respectively, was dissolved in a solution of DMSO+the above-mentioned buffer (1:9) (note, final concentration of DMSO was 10% in the buffer) to a concentration of 9 times that shown in Table 12. […]
as §4, §5

IC50 [1]: 13 nM
IC50 (Bovine spleen trypsin): 330 nM
B1: SLPI: Human secretory leukoprotease inhibitor; recombinant SLPI of Reference Example 1 used as control (protein)
chain: SGKSFKAGVCPPKKSAQCLRYKKPECQSDWQCPGKKRCCPDTCGIKCLDPVDTPNPTRRKPGKCPVTYGQCLMLNPPNFCEMDGQCKRDLKCCMGMCGKSCVSPVKA
